Measured values from paper PMC10840721 (Developmental cell, 2022).
Read-outs that look alike come from different tables or passages of the source. One block for each binder: values may come before it.

Columns and labels:
NHR-23;NHR-85 [1] = target: T1, NHR-23;NHR-85 (Caenorhabditis elegans;Caenorhabditis …, UniProt P41828;Q9XUK7 1-588;1-514, |); test: EMSA
T1 sequence 1: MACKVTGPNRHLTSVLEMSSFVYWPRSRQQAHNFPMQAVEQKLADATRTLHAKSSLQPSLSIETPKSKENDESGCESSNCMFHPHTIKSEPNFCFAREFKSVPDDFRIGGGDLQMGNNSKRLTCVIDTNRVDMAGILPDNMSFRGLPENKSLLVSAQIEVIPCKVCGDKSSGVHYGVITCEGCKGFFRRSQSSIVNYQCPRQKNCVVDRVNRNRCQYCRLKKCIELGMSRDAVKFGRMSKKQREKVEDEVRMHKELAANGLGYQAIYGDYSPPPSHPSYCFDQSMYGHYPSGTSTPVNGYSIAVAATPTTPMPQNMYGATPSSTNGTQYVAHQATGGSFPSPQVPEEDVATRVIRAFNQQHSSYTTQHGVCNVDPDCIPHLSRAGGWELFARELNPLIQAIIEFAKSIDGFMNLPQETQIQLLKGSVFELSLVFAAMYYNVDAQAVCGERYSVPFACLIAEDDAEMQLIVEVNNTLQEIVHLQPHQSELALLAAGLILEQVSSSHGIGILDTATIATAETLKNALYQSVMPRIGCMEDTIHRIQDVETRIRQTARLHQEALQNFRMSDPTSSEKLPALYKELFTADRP
T1 sequence 2: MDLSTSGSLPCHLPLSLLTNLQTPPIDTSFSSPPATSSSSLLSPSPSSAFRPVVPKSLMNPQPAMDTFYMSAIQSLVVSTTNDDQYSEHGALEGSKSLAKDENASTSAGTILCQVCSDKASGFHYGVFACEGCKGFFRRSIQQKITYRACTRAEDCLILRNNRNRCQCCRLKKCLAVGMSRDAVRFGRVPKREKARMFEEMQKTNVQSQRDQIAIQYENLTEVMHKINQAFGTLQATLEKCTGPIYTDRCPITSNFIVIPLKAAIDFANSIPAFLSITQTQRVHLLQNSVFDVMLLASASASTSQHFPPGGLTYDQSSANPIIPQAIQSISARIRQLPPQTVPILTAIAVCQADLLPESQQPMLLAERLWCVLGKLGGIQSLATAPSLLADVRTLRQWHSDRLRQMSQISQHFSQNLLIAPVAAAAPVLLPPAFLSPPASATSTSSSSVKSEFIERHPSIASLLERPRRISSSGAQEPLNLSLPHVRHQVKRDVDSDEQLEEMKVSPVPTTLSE

NHR-23;NHR-85 [2] = target: T1, NHR-23;NHR-85; test: EMSA; remark: listed apart in the source
NHR-23;NHR-85 [3] = target: T1, NHR-23;NHR-85; test: EMSA; remark: listed apart in the source
[4] = target: T2, NHR-23 (recombinant, Strep-SUMO tag cleaved) (C. elegans, UniProt P41828 1-588); test: MST
T2 sequence (looked up): T1 sequence 1

B1: Proximal (25 bp) (dsDNA)
DNA 1: CGAAGCGACCGAATGACCCAGTCTC
DNA 2: GAGACTGGGTCATTCGGTCGCTTCG
- binding result (NHR-23;NHR-85 [1]): binds

B2: Mut_DR2 (dsDNA)
DNA 1: ACAAATTGAGGTCAGTCCCTGTCTA
DNA 2: TAGACAGGGACTGACCTCAATTTGT
- binding result (NHR-23;NHR-85 [2]): no binding

B3: wtLIN-4_23_85 (PCE direct repeat, 25 bp) (dsDNA)
DNA 1: ACAAATTGAGGTCAGTCGGTCAGTA
DNA 2: TACTGACCGACTGACCTCAATTTGT
- binding result (NHR-23;NHR-85 [3]): binds

- Kd [4]: 5.8 nM
B4: Strep2-NHR-85 (natural protein, C. elegans, UniProt Q9XUK7 1-514, looked up)
chain: T1 sequence 2
modifications: AlexaFluor647 NHS Ester label (in the microscale thermophoresis assay only)

B5: Mut_DR1 (dsDNA)
DNA 1: ACAAATTGACCTGTGTCGGTCAGTA
DNA 2: ACTGACCGACACAGGTCAATTTGT
- binding result (NHR-23;NHR-85 [2]): no binding
